According to the DeepSol protein solubility set:

Assay: soluble on expression in E. coli; label from the status in PepcDB or PDB records
For “MTIEKEIEGLIHKTNKDLLNENANKDSRVFPTQRDLMAGIVSKHIAKNMVPSFIMKAHESGIIHVHDIDYSPALPFTNCCLVDLKGMLENGFKLGNAQIETPKSIGVATAIMAQITAQVASHQYGGTTFANVDKVLSPYVKRTYAKHIEDAEKWQIADALNYAQSKTEKDVYDAFQAYEYEVNTLFSSNGQTPFVTITFGTGTDWTERMIQKAILKNRIKGLGRDGITPIFPKLVMFVEEGVNLYKDDPNYDIKQLALECASKRMYPDIISAKNNKAITGSSVPVSPMGCRSFLSVWKDSTGNEILDGRNNLGVVTLNLPRIALDSYIGTQFNEQKFVELFNERMDLCFEALMCRISSLKGVKATVAPILYQEGAFGVRLKPDDDIIELFKNGRSSVSLGYIGIHELNILVGRDIGREILTKMNAHLKQWTERTGFAFSLYSTPAENLCYRFCKLDTEKYGSVKDVTDKGWYTNSFHVSVEENITPFEKISREAPYHFIATGGHISYVELPDMKNNLKGLEAVWDYAAQHLDYFGVNMPVDKCFTCGSTHEMTPTENGFVCSICGETDPKKMNTIRRTCAYLGNPNERGFNLGKNKEIMHRVKHQ”, the “soluble on expression in E. coli” value was “soluble”.
With “MTIKTLQYDDFMLYRERIRDLLVQIYDINFDVSHDYSINESNKKINLLDEYIKTNQAVLIGAVDGEKLVGFIWIYKHEYFGETRMHINQIIVDKEYKRKGIGKRLLEEAEKKAKELGIKVIDLFVSEKNAEAVNFYEKTGFVTERRYLKKILLEHHHHHH” the “soluble on expression in E. coli” value was “not soluble”.
With “MTKAVVIGGGLAGLATTALLLREGYEVHLVEQNEHLGGRAGTFELDGFRWDTGPSWYLMPDAMSHFFKLCGTSIDDHLDLVPLEPAYRVIDDHGEFIDVTSDIDAMAELFESREPGAGAKLRTYIDSATQVYNLAIDGFLYTNFTNFIPYLSPGMLRLLPKLLASLSTSLKVKVNTQFRDTKLRQILSYPAVFLSSDPSHTPALYHLMSHTDLVQGVSYPRGGFTAFIKALISLIDDAVLHLGTPVSAITTQGRNATGVQVGSEFIEADIVISCADQHHTETQLLPASLCAKPETSWKNKQPGLSTVLVLAGVKGEHTLLFPPTGTKISAKFSTAPPQNSRLQNPSRSPRPPQQIPMPHPKATRTSSSWSQYPPMSPLVTGPLTEKNLTWWAGSQLEHHHHHH” the “soluble on expression in E. coli” value was “not soluble”.
For “MTKEKLSWLQQKMLNKSIKKKCQNFRELGYSSINEEDLLTYLLTYRWKKQTHLSVKDCRKDIHKVKPNEFFDYQQLLAQTSKNPLRDWHDIEDLF”, the “soluble on expression in E. coli” value was “not soluble”.
For “MTKHKERVMYYGKGDVFAYRTYLKPLTGVRTIPESPFSGRDHILFGVNVKISVGGTKLLTSFTKGDNSLVVATDSMKNFIQKHLASYTGTTIEGFLEYVATSFLKKYSHIEKISLIGEEIPFETTFAVKNGNRAASELVFKKSRNEYATAYLNMVRNEDNTLNITEQQSGLAGLQLIKVSGNSFVGFIRDEYTTLPEDSNRPLFVYLNIKWKYKNTEDSFGTNPENYVAAEQIRDIATSVFHETETLSIQHLIYLIGRRILERFPQLQEVYFESQNHTWDKIVEEIPESEGKVYTEPRPPYGFQCFTVTQEDLPHENIL”, the “soluble on expression in E. coli” value was “soluble”.
In the case of “MTKISERNIKVARKNVCKNIQRLNKKLSNKIKNEEAALPDIIAGTHGTPIEKLLTLYKLSDPIFTAIRPFTACRYGCSACCHYKVDLLPIEAELIAISLGQAPLPLPTTFQNGHGKRCPFLSKNGQCNIYSIRPMACRRHFMFTNSDYWCNPVHSEDIKIKMLGFSGIIEAYINIANQDGRYSPENIRDIRDYFTAGIDADVNARELDSELEHHHHHH”, the “soluble on expression in E. coli” value is reported as “not soluble”.
With “MTKKCPKCGNEFDAELTTCPTCGYSLTDTTVDKEEAETTSTNIDFETQENEEHEDQLNENIEWSELKDMSLGHVMELFGESPEEESNDDKKEESTEDNLIVSDSEDVSGLEASLQEGASEETHDSVEESIPATEETPTHSTEEKLATDEAVNLEETTEETTEETTTVEAETAEVSETVKSEEEALTEISGTEVISTTSEEEIFSQPPIEDQDVTPNETLQAYIQAHRADTEMSENPSEETAETQELENSGEAVLTQAETPTESISDSEEGLTSAASLEAPSDADATEGKVSDSGVIPPMNETGNAQPAPAPKKPSKKVVFVALAVVLLAGGSAWAYHDQTQKAAAQEAAALTKKTDTLKDELAAFYTTKEQVFIKPDMVTVSPEKLSKQVAEIKDSEEYSQLNKQIQTLKEKQQTIQQINQLFEAPIVNGNELKPAILAADQPISVKKLTGNDPFDQLMNQAIDQANQQYNQLQKAKKAVEVIYKDGKTTNQLNRDTYQAAKAEVDKVTSDKLKKELVKQVTTADQALTKVEEEQKRIAEEQAAAEQAKQAEEQAKQAAAAKKEDAKKEETAKTEANGYTAPNSDGVYTSPLYAPDAADIADSSNPAWTWAPGVKEKVLDTVIARGYVVPGGYSLEPAKIVNGEGYYNLYATNNQSKLLEGTTEKNVHMYLVTINAKTGWFKGNASRNAGQ” the “soluble on expression in E. coli” value was “not soluble”.
In the case of “MTKKVAIILANEFEDIEYSSPKEALENAGFNTVVIGDTANSEVVGKHGEKVTVDVGIAEAKPEDYDALLIPGGFSPDHLRGDTEGRYGTFAKYFTKNDVPTFAICHGPQILIDTDDLKGRTLTAVLNVRKDLSNAGAHVVDESVVVDNNIVTSRVPDDLDDFNREIVKQLQ”, the “soluble on expression in E. coli” value is reported as “not soluble”.
In the case of “MTKNEIRKYILHKMKNFNKAEKRKADTWLRNQFFATEEYKEANAIALVLSFNHEVDTFSIIEQALMDHKRIFVPKMDYLNHQMTFKEIFNLKDIDVDNKGIYYPTSKGETTNNLDLIVVPGVGFQDDGYRIGYGGGYYDRFLANYQTKTISLLYDFQITSFEPESFDQPVDKLIIYQSALEHHHHHH”, the “soluble on expression in E. coli” value is reported as “soluble”.
For “MTKRIEIKPATAADQAALAEIYLVDRQQDFPWVTDPQLQDFNEDSRGEFVLVAWIDGQRAGFCSLYRLANFIHLLFVAPDFRHLKVGERLLTEMRQYATEPLTLKCVMANENALRFYAQVGFRIVKADADALPPNYTLRDTHTEQYVALVDVMANERKLN”, the “soluble on expression in E. coli” value was “soluble”.
For “MTLAEENLRLFEKKFAILQEISNALVVTDNISAIANLMLDLAVNYTRAEKGSLLLLNERDELFILAGRGIDLQLMRTYRARLGEGIAGIVAKGRVPILVKDIDQDSRFQGMTRDRYKTPSFISCPIVSKDRLLGLLNINDKADGTPFLDDEFSLIKIIANQAAIALENAMLVNQLR”, the “soluble on expression in E. coli” value was “not soluble”.
With “MTLCAMYNISMAGSHPTTICVVMDRFLESFSELYDIIDENDTDVMMDFISRFARTDEIMPEDKTVGFVVVNADKKLMSVSFSDIDENMKKVIKATAEKFKNKGFKVETDM” the “soluble on expression in E. coli” value was “soluble”.
For “MTLEWEEFLDPYIQAVGELKIKLRGIRKQYRKQNKHSPIEFVTGRVKPIESIKEKMARRGITYATLEHDLQDIAGLRVMVQFVDDVKEVVDILHKRQDMRIIQERDYITHRKASGYRSYHVVVEYTVDTINGAKTILAEIQIRTLAMNFWATIEHSLNYKYQGDFPDEIKKRLEITARIAHQLDEEMGEIRDDIQEAQALFDPLSRKLNDGVGNSDDTDEEYR”, the “soluble on expression in E. coli” value was “soluble”.
In the case of “MTLGTALKQARKAQQLNQKQAARGICAQSMLSAIENDRYVPNARLLLALCQRLGVAVSTLSLADDFEISAEQAFNDRVRQMCNAHQYQQLKDWLLQPTTLEHVQTDEQTQAYYYYLGVACWQVDRTSDAAQQNLRLAIGMAAPSSPPTTLTRLALISLAVVKAHHHPQAPVAALVTRALADIDAGAYEENANIVFYLAGLVAYEQHDSQLAVARLTQGLAFATTHDSHYMLANIYQLMAQLAMAAGETATAQVASQRSQVFKDLFKEQINDRL”, the “soluble on expression in E. coli” value is reported as “not soluble”.
In the case of “MTLKLTYFDIRGLAEPIRLLLNDQEIPFEDNRISREEWAEMKSTMIFAQLPCLHIGTETIVQSAAILRHLGRIYGLNGSTESETSFIDMFSEGLRDLRTKYFTMIKTDYEDGKEAYITETLPGELLRIEKLFCTFNNGENFVSGDKLSYADYALFELLDIHLILTPTALNGTPALKRFHGRFAERPNMRLYLNKRAELNPFVSGNGKQ”, the “soluble on expression in E. coli” value is reported as “not soluble”.
For “MTLLRVGGVPEPFNEIFMQAQEGALPSTKLQVEFLGVAGGSGAALEMLAKCELDVAVTLTESAVARTKAAASGLAVHSVYVASPLAWGVAVSSKKTDWTDLNSLDAAVLRGESIRAGFSRRGSGSHLLLSVFASDRGWISTGIQNDILKSFECGSFDGLIQAAVAGDIDMFLWETCFTKECAATRQGLIRLVGEYAPSWPAFVLVCRDDAHVRAAVSELKREIEPLQRKFCTGEGLDILQNKYGFSLESAKLWLSRLQFAEPDEALSAEQWRSVERALELTAGSRSSSR”, the “soluble on expression in E. coli” value was “soluble”.
In the case of “MTLSIIVAHDKQRVIGYQNQLPWHLPNDLKHIKQLTTGNTLVMARKTFESIGKPLPNRRNVVLTNQASFHHEGVDVINSLDEIKELSGHVFIFGGQTLYEAMIDQVDDMYITVIDGKFQGDTFFPPYTFEDWEVESSVEGQLDEKNTIPHTFLHLVRRKGK”, the “soluble on expression in E. coli” value is reported as “soluble”.
In the case of “MTLTKAELADILVDKVSNVTKNDAKEIVELFFEEIRSTLASGEEIKISGFGNFQLRDKPQRPGRNPKTGEEVPITARRVVTFHASQKLKSMVEHYYDKQR”, the “soluble on expression in E. coli” value is reported as “not soluble”.
With “MTMEQLQTPPVVVEVCHTLDKKQLNAISKQVYETTLEAIERARRDSEVDSDLIYTRVGVRRFLDNCSEAYLDELIAKGLPTGRRLSDRKTCWSKHQLRSWLLENE” the “soluble on expression in E. coli” value was “not soluble”.
With “MTMTLNELLATNPDGTLEDIAGKYNTSLFAVVEALPTAQCTLATGDRFDQVWDTIATWGEVTLISHTADAILEFKSELPTGTHRHGYFNLRGKNGLSGHIRATSCQHIAFIERKFMGMDTASVVFFNANGAAMFKIFLGRDSHRQLLSAQVDAFRALASELQPEQVLEHHHHHH” the “soluble on expression in E. coli” value was “soluble”.
For “MTNEEPLPKKVRLSETDFKVMARDELILRWKQYEAYVQALEGKYTDLNSNDVTGLRESEEKLKQQQQESARRENILVMRLATKEQEMQECTTQIQYLKQVQQPSVAQLRSTMVDPAINLFFLKMKGELEQTKDKLEQAQNELSAWKFTPDR”, the “soluble on expression in E. coli” value was “soluble”.
In the case of “MTNEEPVPSTSSVLSAAEKNVKIETPSRKRKGLDIDALWRKKFKDVENQKSPEKSEKSEKTIKEEPLETHPSGERKLRSASKDSKSLSKETHNTISTRSSSSGTPRKKMEPEDVKPNIKMLKKSLPVSFQCSNLNDGTVGDASVMLDPTKISLHSSSVAYGEESQDEMEVIQHSTDDPNGTREEFDYNQIEYGNAVTPNGTYTLYAPDSNYAPYYQYSNNMQSSPQDNAPYLVPAPQSPVSIDDADSINLPNNQRASPATVNWLFENYEIGEGSLPRCELYDHYKKHCAEHRMDPVNAASFGKLIRSVFHNLKTRRLGTRGNSKYHYYGIRLKDSSTLHSMQHPQPQIIQNTYTPPMQLPQRDAYADTVNQVAAIKYMDVEIPDKRARKDNSSSSSSCRDSVSPCMDLPAQQTIQHTPVHSVIPSTQQPAPLHNNNVVSYVVTESDKAAMGKIDLPIVPFPDKDALMATIGFRKLGVGEEELNSLIDIYEILCREILALIKNIDFASVEDTWSKFWSGNFGVDRDHISALCTLDQVQDYIIEVDLALYQTIVDTLIPNVLLSELSTGMTQTCRTFAKNIDVYLRKSLMLANLGEFFVKKKIQAIKYLQQGLKRYTSLNHLAHASRGVLMKPEQVQQMYQDYIRVDINTVHQQAGWICGCDSVMVHHVNNAFKHNLQRMSAMEVWAEWLESIVDQVLAKYHDKPANVIANVGKQFLLNWSFYTSMIIRDLTLRSAMSFGSFTLIRLLADDYMYYLIESKIAKAGKQQLITVIRADKDWPLTTNPQEYIVVANDNDEDLDLEKAGLL”, the “soluble on expression in E. coli” value is reported as “not soluble”.
For “MTNIEILENMLKLQQKLNDETNGLNWENGYTKEGKLISWRRCIYMECAELIDSFTWKHWKNISSLTNWENVRIEIVDIWHFILSLLLEEYRDKNNKDFKAIATEVNAVSVFQDFCKEEEYPNEGDIYGILNDIELIIHKCSGFGFNLGELLSTYFTLAIKCGLNLEILYKTYIGKNVLNIFRQNNGYKDGSYKKTWNGKEDNEVLAQILEQELDFDTIYKKLEECYKKA”, the “soluble on expression in E. coli” value was “soluble”.
